For assay [1], the target named is GPR3-BRIL fusion protein (UniProt P46089). As to the kind of experiment: cryo-EM structure.
The target is the same in assay [2]. The assay can be described thus: cryo-EM structure. The source holds these as a separate data set.

Like-named read-outs stand apart in the source and are kept apart here.

The stoichiometry N is the number of molecules, sites or subunits per partner or assembly. Take “GPR3-BRIL fusion protein (from UniProt P46089 1-222; P46089 240-330) (receptor)”: the stoichiometry N in assay [1] and in assay [2] was 2 each time.

(Values after paper doi:10.1101/2025.04.19.649678.)
